In patent US20060031961A1, “Aldehyde reductase” (priority 2004, published 2006):
Where “and” joins values, the source holds several entries; their conditions need not be identical. Equal values may be shown once. Each block holds one molecule with its values, some of them ahead of it.

Test system: aldehyde reductase
Test: Aldehyde reductase activity assay of expressed, purified proteins (oxidation of NADPH, change in A340)
Type: biochemical, Soybean (Glycine max L.)
Protocol: The activity assay measured oxidation of NADPH on a UV500 UV-Visible double-beam Spectrometer (Unicam) by monitoring the change in A340. The assay was performed at room temperature (approximately 23° C.) by adding all of the following reagents into a 1-mL 1-cm quartz cuvette: 500 μL of 200 mM HEPES-KOH pH 7.0, 200 μL of ddH2O, 100 μL of 1 mM NADPH, 25-50 μL aldehyde reductase extract in a 100 μL total volume of 100 mM HEPES-KOH pH 7.0, 10% glycerol buffer. After these samples were mixed and blanked and were incubated for three minutes and a pre-substrate rate was calculated, the assay was started by addition of the substrate to the sample cuvette (solvent was added to the reference cuvette). Several different substrates were tested with each enzyme preparation. These substrates included the following: 100 μL of 100 mM glyceraldehyde, 10 μL of 100 mM glyceraldehyde, or 100 μL of 0.5% […] hexanal in v/v ethanol, or 100 μL of a carbonyl compounds mixture (ULTRA Scientific, North Kingston, R.I.; formaldehyde, acetaldehyde, propanal, butantal, pentanal, hexanal, heptanal, octanal, nonanal, decanal, cyclohexanone, and crotonaldehdye (in methanol)). The carbonyl compounds mixture contains approximately 16 μmole total aldehyde per assay. Except for the inactivity seen in one aldehyde reductase extract with hexanal as the substrate, both of the aldehyde reductase enzymes were active with each of the different substrates tested (see Table 6). As a control, an extract of E. coli proteins without the expressed aldehyde reductase enzymes was prepared and assayed the same way. […] A Bradford assay was performed to determine protein concentrations in the extracts, and the enzymatic rates were calculated. Table 6 presents the activity (in μmol of NADPH oxidized and were NADPH specific (i.e., no activity was observed when NADH was used as the reductant)/min^−1/mg protein^−1) obtained for the purified protein extracts from the plasmids and the source of the DNA. Enzyme activity was calculated as follows: (ΔA340/min; after correction for pre-substrate addition rates)/(6.2×mg enzyme/mL reaction mixture).

[1] = substrate 1 mM glyceraldehyde, NADPH
[2] = substrate 10 mM glyceraldehyde, 100 μL of 1 mM NADH substituted for NADPH
[3] = substrate 10 mM glyceraldehyde, 100 μL of 10 mM ZnCl2 substituted for 100 μL ddH2O
[4] = substrate 10 mM glyceraldehyde, NADPH, room temperature, pH 7.0
[5] = substrate 100 μL 0.5% hexanal, NADPH
[6] = substrate 100 μL aldehyde mixture (carbonyl compounds mixture), NADPH

Activity [1]: 0.14 μmol · min^−1 · mg protein^−1
Activity [2]: 0.00 μmol · min^−1 · mg protein^−1
Activity [3]: 0.28 μmol · min^−1 · mg protein^−1
Activity [5]: 0.00 μmol · min^−1 · mg protein^−1
Activity [6]: 0.58 μmol · min^−1 · mg protein^−1
B1: sls2c.pk027.a23:fis: soybean aldehyde reductase encoded by clone sls2c.pk027.a23:fis, expressed in E. coli and purified (protein)
chain: MAKSIKFFELNTGAKIPSLGLGTWQAEPGVVAEALTTAIQVGYRHIDCASAYKNQAEIGSALKKLFDDGVVKREDLWITSKLWCSDHAPEDVPKALDKTLQELQLDYLDLYLIHWPVRMKSGTFGLNKEYLEQPDIPNTWRAMEALYDSDKARAIGVSNFSSKKLQDLLDIARVVPAVNQVELHPGWQQPKLRAFCESKEIHLSGYSPLGSPAALKSDILKNPVVTEIAERLGKTPAQVALRWGLQAGHSVLPKSTNESRIKGNFDIFDWSIPQDLMTKISEIKQERLVKASFFVHETYGAYRSIEDFWDGEL
modifications: Glycine max
notes: soybean aldehyde reductase encoded by clone sls2c.pk027.a23:fis, expressed in E. coli and purified
Activity [4]: 0.70 μmol · min^−1 · mg protein^−1 and 0.60 μmol · min^−1 · mg protein^−1 and 0.74 μmol · min^−1 · mg protein^−1

Activity [1]: 0.58 μmol · min^−1 · mg protein^−1
Activity [2]: 0.00 μmol · min^−1 · mg protein^−1
Activity [3]: 0.45 μmol · min^−1 · mg protein^−1
Activity [5]: 0.26 μmol · min^−1 · mg protein^−1
Activity [6]: 0.55 μmol · min^−1 · mg protein^−1
B2: sr1.pk0003.c5: soybean aldehyde reductase encoded by clone sr1.pk0003.c5:fis, expressed in E. coli and purified (protein)
chain: MAKLIKFFELNTGAKIPSVGLGTWQAEPGVVAKAVTTAILVGYRHIDCAQAYNNQAEIGSALKKLFDDGVVKREDLWITSKLWCSDHASEDVPKALDKTLQDLQLDYLDLYLIHWPVRMKSGSVGFKKEYLDQPDIPSTWKAMEALYDSGKARAIGVSNFSSKKLQDLMNIARVPPAVNQVELHPGWQQPKLHAFCESKGVHLSGYSPLGSPGVLKSDILKNPVVIEIAEKLGKTPAQVALRWGLQTGHSVLPKSTNESRIKGNFDVFDWSIPEEVMDKFSEIKQDRLIKGTFFVDETYGAFKTVEELWDGEL
modifications: Glycine max
notes: soybean aldehyde reductase encoded by clone sr1.pk0003.c5:fis, expressed in E. coli and purified
Activity [4]: 1.65 μmol · min^−1 · mg protein^−1 and 1.90 μmol · min^−1 · mg protein^−1 and 2.24 μmol · min^−1 · mg protein^−1
